For test [1], the target named is EV71 2C 116–329 (enterovirus 71) (UniProt Q66478). The test can be described thus: SEC.
The target in test [2] is EV71 2C 116–329 E325A (enterovirus 71). Briefly: SEC.

With “EV71 2C 116–329 (from UniProt Q66478 117-330) (domain or fragment)”, in test [1], the stoichiometry N was found to be 4.
In test [2], “EV71 2C 116–329 E325A (domain or fragment)” showed a stoichiometry N of 2.

For the origin of these results see PMC5409451.
